Laboratory results taken from publication PMC7333480 (Journal of Molecular Cell Biology, 2019).

Target: His-ezrin WT (UniProt P15311 1-586)
Experiment: pull-down

His-ezrin WT, sequence (P15311 whole entry): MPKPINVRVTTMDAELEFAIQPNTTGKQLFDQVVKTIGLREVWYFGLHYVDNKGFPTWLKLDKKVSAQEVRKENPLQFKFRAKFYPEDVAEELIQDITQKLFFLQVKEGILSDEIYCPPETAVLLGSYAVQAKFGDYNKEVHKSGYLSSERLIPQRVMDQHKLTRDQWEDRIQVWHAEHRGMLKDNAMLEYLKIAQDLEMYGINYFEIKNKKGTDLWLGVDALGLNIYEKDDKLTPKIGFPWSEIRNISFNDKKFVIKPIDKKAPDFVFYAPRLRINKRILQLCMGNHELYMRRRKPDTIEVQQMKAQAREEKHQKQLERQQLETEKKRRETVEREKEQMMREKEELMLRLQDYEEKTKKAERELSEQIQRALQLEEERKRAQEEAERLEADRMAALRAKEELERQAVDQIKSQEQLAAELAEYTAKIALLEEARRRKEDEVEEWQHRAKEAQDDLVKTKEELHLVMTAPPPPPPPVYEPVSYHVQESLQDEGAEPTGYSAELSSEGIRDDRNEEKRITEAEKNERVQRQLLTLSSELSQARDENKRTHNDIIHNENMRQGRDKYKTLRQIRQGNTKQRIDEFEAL

binding result	Binder
binds	GST-EBP50-CT (domain or fragment) KENSREALAEAALESPRPALVRSASSDTSEELNSQDSPPKQDSTAPSSTSSSDPILDFNISLAMAKERAHQKRSSKRAPQMDWSKKNELFSNL
binds	FGQHLRQQRMGTYGVRAAWRRLPQAFRP (domain or fragment) [GST-ICAM2-CT]
